For 1 molecule, minimum positive concentration results are on record in patent WO2021212049A2.

Bounds are passed on as bounds.

This assay concerns the target recombinant SARS-CoV-2 S protein ectodomain (residues 14-1211), 2P, furin site mutated, foldon, 8XHis (SARS-CoV-2), P0DTC2. The assay can be described thus: ELISA on coated antigen, anti-human IgG-HRP. The following applies: remark: other sources report otherwise.

B1: mAb 2H04 (antibody)
chain 1: EVQLQQSGAELVKPGASVKMSCKASGYTFTSYWITWVKQRPGQGLEWIGDIYPGSGSTKYNEKFRSEATLTVDTSSTTAYMQLSSLTSEDSAVYYCARWDFYGSRTFDYWGQGTTLTVSS
chain 2: DIVLTQSPAILSVSPGERVSFSCRASQNIGTIIHWYQQRTNGSPRLLIKYASESVSGIPSRFSGSGSGTDFTLSINSVESEDIADYYCQQSSSWPLTFGAGTKLELK
B1: the minimum positive concentration is less than 5 µg/mL.
